{
  "source": "IntAct's records for PubMed 19940251",
  "parents": {"B1": {"name": "DNA replication regulator protein HobA (Helicobacter pylori), O25828 (parent)", "chain": "MKNFYDWIKEFVRDQGEFIAQQSGWLELERSSYAKLIAQTISHVLNGGSLLVSADSSRHWFLNYILSNLNPKDLKERPLLSVIDFNASSFYPKNDANLSLATIEMTYQNPMFWHVGKIENEGLKTILLSKIPSFLWLFEELKEDCLLLKEHDSLLDYKLLQLFKLFENALFSVLYNKVTL", "partner": "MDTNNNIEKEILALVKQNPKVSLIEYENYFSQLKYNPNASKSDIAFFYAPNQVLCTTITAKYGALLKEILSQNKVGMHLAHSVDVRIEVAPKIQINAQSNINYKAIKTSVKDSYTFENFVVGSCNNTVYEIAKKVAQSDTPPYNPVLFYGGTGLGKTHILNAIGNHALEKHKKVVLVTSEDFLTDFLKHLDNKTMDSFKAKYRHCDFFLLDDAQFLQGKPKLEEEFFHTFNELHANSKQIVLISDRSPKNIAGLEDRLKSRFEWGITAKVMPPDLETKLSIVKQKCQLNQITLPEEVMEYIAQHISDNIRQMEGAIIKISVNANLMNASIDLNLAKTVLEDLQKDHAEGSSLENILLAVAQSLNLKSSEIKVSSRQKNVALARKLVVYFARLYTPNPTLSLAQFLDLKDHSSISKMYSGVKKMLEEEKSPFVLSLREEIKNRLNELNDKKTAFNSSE"}},
  "data": [
    {"variants_of": "B1", "conditions": "with dnaa_helpy dnaA", "values": [
      {"variant": "L69P", "effect of a mutation on the interaction": "disrupting interaction"},
      {"variant": "L51S", "effect of a mutation on the interaction": "disrupting interaction strength"},
      {"variant": "L51F", "effect of a mutation on the interaction": "disrupting interaction strength"},
      {"variant": "S88P", "effect of a mutation on the interaction": "disrupting interaction"},
      {"variant": "H43R", "effect of a mutation on the interaction": "decreasing interaction"},
      {"variant": "S67P", "effect of a mutation on the interaction": "decreasing interaction"},
      {"variant": "L127P", "effect of a mutation on the interaction": "disrupting interaction"},
      {"variant": "L137P", "effect of a mutation on the interaction": "decreasing interaction"},
      {"variant": "F138S", "effect of a mutation on the interaction": "decreasing interaction"},
      {"variant": "F166S", "effect of a mutation on the interaction": "decreasing interaction"}
    ]},
    {"variants_of": "B1", "conditions": "with dnaa_helpy dnaA", "remark": "another data set of the same source", "values": [
      {"variant": "I83M", "effect of a mutation on the interaction": "decreasing interaction"},
      {"variant": "L170P", "effect of a mutation on the interaction": "disrupting interaction"},
      {"variant": "L128P", "effect of a mutation on the interaction": "disrupting interaction"},
      {"variant": "L51F", "effect of a mutation on the interaction": "decreasing interaction"},
      {"variant": "A169V", "effect of a mutation on the interaction": "disrupting interaction"},
      {"variant": "D55G", "effect of a mutation on the interaction": "disrupting interaction"},
      {"variant": "L45P", "effect of a mutation on the interaction": "disrupting interaction"},
      {"variant": "L162P", "effect of a mutation on the interaction": "disrupting interaction"},
      {"variant": "M111V", "effect of a mutation on the interaction": "decreasing interaction"},
      {"variant": "H43R", "effect of a mutation on the interaction": "disrupting interaction"},
      {"variant": "S67P", "effect of a mutation on the interaction": "disrupting interaction"},
      {"variant": "L141P", "effect of a mutation on the interaction": "disrupting interaction"},
      {"variant": "V115D", "effect of a mutation on the interaction": "disrupting interaction"},
      {"variant": "S99P", "effect of a mutation on the interaction": "decreasing interaction"},
      {"variant": "L146S", "effect of a mutation on the interaction": "disrupting interaction"},
      {"variant": "V44A", "effect of a mutation on the interaction": "decreasing interaction"},
      {"variant": "R77C", "effect of a mutation on the interaction": "decreasing interaction"},
      {"variant": "F61C", "effect of a mutation on the interaction": "disrupting interaction"},
      {"variant": "F138S", "effect of a mutation on the interaction": "disrupting interaction strength"},
      {"variant": "F138L", "effect of a mutation on the interaction": "disrupting interaction strength"},
      {"variant": "E119G", "effect of a mutation on the interaction": "disrupting interaction"},
      {"variant": "I118T", "effect of a mutation on the interaction": "disrupting interaction"},
      {"variant": "F112S", "effect of a mutation on the interaction": "disrupting interaction"},
      {"variant": "I41T", "effect of a mutation on the interaction": "disrupting interaction"},
      {"variant": "L174P", "effect of a mutation on the interaction": "disrupting interaction"},
      {"variant": "V82A", "effect of a mutation on the interaction": "decreasing interaction"},
      {"variant": "Y107H", "effect of a mutation on the interaction": "decreasing interaction"}
    ]},
    {"variants_of": "B1", "conditions": "with dnaa_helpy dnaA", "remark": "another data set of the same source", "values": [
      {"variant": "Y175E", "effect of a mutation on the interaction": "disrupting interaction"},
      {"variant": "L80R", "effect of a mutation on the interaction": "disrupting interaction"},
      {"variant": "E76A;R77A;P78A", "effect of a mutation on the interaction": "disrupting interaction"}
    ]}
  ]
}
